Assays:
[1] = target: CDTb heptamer (Clostridioides difficile) (UniProt O32739); assay: cryo-EM structure
[2] = target: biotinylated CDTb oligomers (Clostridioides difficile) (UniProt O32739); assay: BLI; […]; 20 mM HEPES pH 8.0, 100 mM NaCl, […]; 5 min association, 10 min dissociation; […]
[3] = target: biotinylated CDTb oligomers (Clostridioides difficile) (UniProt O32739); assay: BLI; biotinylated CDTb oligomers saturated on streptavidin biosensors (Octet Red 96e); CDTa 200 to 0.032 nM in solution; 20 mM HEPES pH 8.0, 100 mM NaCl, blocked with 0.01% Igepal CA-630 and 0.1% BSA; 5 min association, 10 min dissociation; kON from the slope of kobs against concentration, KD from the signal at equilibrium (sigmoidal dose-response fit)

Molecule “CDTb heptamer (from UniProt O32739 45-876) (complex)” has a stoichiometry N [1] of 7.

B1: CDTa_(67-463) (domain or fragment)
chain: KEWERKEAERIEQKLERSEKEALESYKKDSVEISKYSQTRNYFYDYQIEANSREKEYKELRNAISKNKIDKPMYVYYFESPEKFAFNKVIRTENQNEISLEKFNEFKETIQNKLFKQDGFKDISLYEPGKGDEKPTPLLMHLKLPRNTGMLPYTNTNNVSTLIEQGYSIKIDKIVRIVIDGKHYIKAEASVVSSLDFKDDVSKGDSWGKANYNDWSNKLTPNELADVNDYMRGGYTAINNYLISNGPVNNPNPELDSKITNIENALKREPIPTNLTVYRRSGPQEFGLTLTSPEYDFNKLENIDAFKSKWEGQALSYPNFISTSIGSVNMSAFAKRKIVLRITIPKGSPGAYLSAIPGYAGEYEVLLNHGSKFKINKIDSYKDGTITKLIVDATLIP
With B1 the Kd [2] was 18.5 nM and the kon [2] was 400000 M⁻¹ s⁻¹.

B2: CDTa_(40-463) (domain or fragment)
chain: YSEKVCNTTYKAPIERPEDFLKDKEKAKEWERKEAERIEQKLERSEKEALESYKKDSVEISKYSQTRNYFYDYQIEANSREKEYKELRNAISKNKIDKPMYVYYFESPEKFAFNKVIRTENQNEISLEKFNEFKETIQNKLFKQDGFKDISLYEPGKGDEKPTPLLMHLKLPRNTGMLPYTNTNNVSTLIEQGYSIKIDKIVRIVIDGKHYIKAEASVVSSLDFKDDVSKGDSWGKANYNDWSNKLTPNELADVNDYMRGGYTAINNYLISNGPVNNPNPELDSKITNIENALKREPIPTNLTVYRRSGPQEFGLTLTSPEYDFNKLENIDAFKSKWEGQALSYPNFISTSIGSVNMSAFAKRKIVLRITIPKGSPGAYLSAIPGYAGEYEVLLNHGSKFKINKIDSYKDGTITKLIVDATLIP
B2 showed a Kd [3] of 9 nM and a kon [3] of 1.2e+06 M⁻¹ s⁻¹.

B3: CDTa_(60-463) (domain or fragment)
chain: LKDKEKAKEWERKEAERIEQKLERSEKEALESYKKDSVEISKYSQTRNYFYDYQIEANSREKEYKELRNAISKNKIDKPMYVYYFESPEKFAFNKVIRTENQNEISLEKFNEFKETIQNKLFKQDGFKDISLYEPGKGDEKPTPLLMHLKLPRNTGMLPYTNTNNVSTLIEQGYSIKIDKIVRIVIDGKHYIKAEASVVSSLDFKDDVSKGDSWGKANYNDWSNKLTPNELADVNDYMRGGYTAINNYLISNGPVNNPNPELDSKITNIENALKREPIPTNLTVYRRSGPQEFGLTLTSPEYDFNKLENIDAFKSKWEGQALSYPNFISTSIGSVNMSAFAKRKIVLRITIPKGSPGAYLSAIPGYAGEYEVLLNHGSKFKINKIDSYKDGTITKLIVDATLIP
Molecule B3 has a Kd [3] of 9.5 nM and a kon [3] of 800000 M⁻¹ s⁻¹.

B4: CDTa_(50-463) (domain or fragment)
chain: KAPIERPEDFLKDKEKAKEWERKEAERIEQKLERSEKEALESYKKDSVEISKYSQTRNYFYDYQIEANSREKEYKELRNAISKNKIDKPMYVYYFESPEKFAFNKVIRTENQNEISLEKFNEFKETIQNKLFKQDGFKDISLYEPGKGDEKPTPLLMHLKLPRNTGMLPYTNTNNVSTLIEQGYSIKIDKIVRIVIDGKHYIKAEASVVSSLDFKDDVSKGDSWGKANYNDWSNKLTPNELADVNDYMRGGYTAINNYLISNGPVNNPNPELDSKITNIENALKREPIPTNLTVYRRSGPQEFGLTLTSPEYDFNKLENIDAFKSKWEGQALSYPNFISTSIGSVNMSAFAKRKIVLRITIPKGSPGAYLSAIPGYAGEYEVLLNHGSKFKINKIDSYKDGTITKLIVDATLIP
Molecule B4 has a Kd [2] of 5.7 nM and a kon [2] of 1.4e+06 M⁻¹ s⁻¹.

Source: PMC11708034
